Laboratory results as given in PMC5390017.

What was measured:
[1] = biological target: tau phosphopeptide of the C-terminal domain phosphorylated at S422 (cognate peptide of CBTAU-22.1) (human); test: ITC; MicroCal Auto iTC200, in solution; peptide ~40 µM, mAb 200 µM, 20 steps of 2 µl; fitted to a single set of sites, mAb:tau peptide = 1:2
[2] = biological target: tau phosphopeptide 194-212 phosphorylated at S202 and T205 (human) (UniProt P10636); test: as above

Chain of tau phosphopeptide of the C-terminal domain phosphorylated at S422 (cognate peptide of CBTAU-22.1) (human) (P10636 721-746): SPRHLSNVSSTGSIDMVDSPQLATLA

Kd [1] [µM] | Kd [2] [µM] | Binder
32.7 | – | CBTAU-22.1 (human IgG1) (antibody, V domains shown) VH: QVQLVQSGAEVKKPGAPVKVSCETSGYRFSDYNVHWVRQAPGQGPEWIGRISPNSGGTKYAQKFQGRVTMTRDMSMNTAYMELSGLRSDDTAVYYCVRGHCDGTTCSRAYWGQGTLVTVSS VL: DVVMTQSPLSLPVTPGEPASISCRSSQSLLHRSGHKYLHWYLQRPGQSPQVLIYLGSNRASGVPDRFSGSGSGTDFTLKISRVEAEDVGLYYCMQTLQTPWTFGQGTKVEIK
– | 5.8 | CBTAU-7.1 (human IgG1) (antibody, V domains shown) VH: QVQLVESGGGLVQPGGSLRLSCAASGFTFSSYWMHWVRQAPGKGLVWVSRINSDGSDTNYADSVKGRFTFSRDNAKNTLYLQMTSLRAEDTAIYYCTRGRSYGFFDYWGQGALVTVSS VL: DIVMTQSPDTLSLSPGERATLSCRASQIISSNYLAWYQQQPGQAPRLLIYGASSRATGIPDRFSGSGSATDFTLTISRLEPEDFAVYYCQQYGTSPRTFGQGTKLEIK
